Reference: patent US7052705 (dated 2006)
Bridge positions count the residues as written; N and C are the ends. Ends that are not written are not given here.

B1: VEGF121 (protein)
chain: APMAEGGGQNHHEVVKFMDVYQRSYCHPIETLVDIFQEYPDEIEYIFKPSCVPLMRCGGCCNDEGLECVPTEESNITMQIMRIKPHQGQHIGEMSFLQHNKCECRPKKDRARQEKCDKPRR
B2: AS-3 (peptide)
chain: RRPKGRGKRAAAKQRPSDKPRR
B3: VEGF165 (protein)
chain: APMAEGGGQNHHEVVKFMDVYQRSYCHPIETLVDIFQEYPDEIEYIFKPSCVPLMRCGGCCNDEGLECVPTEESNITMQIMRIKPHQGQHIGEMSFLQHNKCECRPKKDRARQENPCGPCSERRKHLFVQDPQTCKCSCKNTDSRCKARQLELNERTCRCDKPRR
B4: (cap)P6V8-3NCS1-7CC (peptide)
chain: CKGRGKRCREKQRPSDKPRR
modifications: disulfide 1-8; also: capped amino and carboxyl termini, chemistry of caps not given here
B5: AS-1 (peptide)
chain: RRPAAAGKRRREKQRPSDKPRR
B6: P6V8-3NCSC13C18 (peptide)
chain: KGRGKRRRECQRPSCKPRR
modifications: disulfide 10-15
B7: AS-4 (peptide)
chain: RRPKGRGKRRREAAAPSDKPRR
B8: P6V8-3NCSA7,8,10,12 (peptide)
chain: KGRGKRAAEAQAPSDKPRR
B9: P6V8-3NCS1-7CCA1 (peptide)
chain: CAGRGKRCREKQRPSDKPRR
modifications: disulfide 1-8
B10: P6V8-3NCSA3A6 (peptide)
chain: KGAGKARREKQRPSDKPRR
B11: P6V8-3NCS1-7CCA5 (peptide)
chain: CKGRGARCREKQRPSDKPRR
modifications: disulfide 1-8
B12: P6V8-3NCSA1A6 (peptide)
chain: AGRGKARREKQRPSDKPRR
B13: P6V8-3NCS1-7CCA1A5 (peptide)
chain: CAGRGARCREKQRPSDKPRR
modifications: disulfide 1-8
B14: V8 (peptide)
chain: RPCDKPRR
B15: P6V8-3NCSA3A5 (peptide)
chain: KGAGARRREKQRPSDKPRR
B16: P6V8-9N (peptide)
chain: RREKQRPCDKPRR
B17: (cap)P6V8-3NCS (peptide)
chain: KGRGKRRREKQRPSDKPRR
modifications: also: (cap), group not given here
B18: V8CS (peptide)
chain: RPSDKPRR
B19: P6V8-3NCSA1A5 (peptide)
chain: AGRGARRREKQRPSDKPRR
B20: AS-4A (peptide)
chain: RRPKGRGKRRREKQRAAAKPRR
B21: RAND1 (peptide)
chain: PKRSRRKGQPRPRGRREKRDRK
B22: P6V8-3NCSA1,5,7,8,12 (peptide)
chain: AGRGARAAEKQAPSDKPRR
B23: P6V8-3N (peptide)
chain: KGRGKRRREKQRPCDKPRR
B24: P6 (peptide)
chain: RRPKGRGKRRREKQRP
B25: P6P7 (peptide)
chain: RRPKGRGKRRREKQRPDAVPRR

Target: T1, VEGFR-2/NP-1 co-expressed (human, UniProt P35968)
Test: competition, COS-1

Row | Binder | binding result
1 | B1 | no binding
2 | B2 | no binding

Target: T2, Neuropilin-1 (NP-1) (human, UniProt O14786)
T2 sequence (O14786 22-923): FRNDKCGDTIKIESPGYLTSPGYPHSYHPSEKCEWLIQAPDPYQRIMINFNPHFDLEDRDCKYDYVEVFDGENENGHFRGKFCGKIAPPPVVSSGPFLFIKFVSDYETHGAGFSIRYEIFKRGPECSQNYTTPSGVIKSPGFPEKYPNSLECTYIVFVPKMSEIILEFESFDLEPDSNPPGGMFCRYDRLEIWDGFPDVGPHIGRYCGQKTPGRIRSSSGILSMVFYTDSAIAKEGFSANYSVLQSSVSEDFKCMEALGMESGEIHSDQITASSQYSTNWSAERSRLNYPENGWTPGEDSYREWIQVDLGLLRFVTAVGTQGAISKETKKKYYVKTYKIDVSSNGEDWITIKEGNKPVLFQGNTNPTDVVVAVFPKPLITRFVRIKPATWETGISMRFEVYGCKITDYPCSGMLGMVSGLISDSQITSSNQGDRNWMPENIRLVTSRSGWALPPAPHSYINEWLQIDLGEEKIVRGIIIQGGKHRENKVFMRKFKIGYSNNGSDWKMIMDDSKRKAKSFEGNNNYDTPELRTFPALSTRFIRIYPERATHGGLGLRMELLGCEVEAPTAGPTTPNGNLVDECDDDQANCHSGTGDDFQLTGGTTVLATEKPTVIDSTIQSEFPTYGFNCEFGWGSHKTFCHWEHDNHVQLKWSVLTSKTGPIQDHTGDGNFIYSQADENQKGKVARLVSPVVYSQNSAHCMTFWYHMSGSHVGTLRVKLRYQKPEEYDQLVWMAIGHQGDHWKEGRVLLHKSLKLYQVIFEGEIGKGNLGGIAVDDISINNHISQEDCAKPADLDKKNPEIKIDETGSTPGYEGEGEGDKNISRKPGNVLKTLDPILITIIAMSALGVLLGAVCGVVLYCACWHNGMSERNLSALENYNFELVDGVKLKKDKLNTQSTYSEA
Test: competition, COS-1

Row | Binder | IC50 [nM]
3 | B3 | 0.582

Target: T3, VEGFR-2 (human, UniProt P35968)
T3 chain: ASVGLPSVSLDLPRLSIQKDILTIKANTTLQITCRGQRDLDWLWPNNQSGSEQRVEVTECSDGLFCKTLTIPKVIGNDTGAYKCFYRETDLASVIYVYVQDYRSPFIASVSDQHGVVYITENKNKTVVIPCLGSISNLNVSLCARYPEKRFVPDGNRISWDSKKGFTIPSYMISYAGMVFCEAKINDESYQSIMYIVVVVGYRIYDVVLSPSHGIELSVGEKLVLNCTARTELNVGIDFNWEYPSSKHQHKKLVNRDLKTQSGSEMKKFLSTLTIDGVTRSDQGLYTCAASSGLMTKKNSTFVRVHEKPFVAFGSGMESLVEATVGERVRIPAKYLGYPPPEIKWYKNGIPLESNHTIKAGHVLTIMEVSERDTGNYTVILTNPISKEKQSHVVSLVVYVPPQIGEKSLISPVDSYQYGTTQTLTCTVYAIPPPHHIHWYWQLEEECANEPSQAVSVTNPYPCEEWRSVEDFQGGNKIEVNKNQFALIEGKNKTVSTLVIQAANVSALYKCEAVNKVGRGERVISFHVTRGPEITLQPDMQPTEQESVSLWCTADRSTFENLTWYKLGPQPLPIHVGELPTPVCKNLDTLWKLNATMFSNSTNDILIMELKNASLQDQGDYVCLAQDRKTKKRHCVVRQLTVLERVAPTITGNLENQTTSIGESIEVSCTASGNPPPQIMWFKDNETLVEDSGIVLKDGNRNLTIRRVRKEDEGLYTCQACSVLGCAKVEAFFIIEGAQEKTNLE
Test: competition, COS-1

Row | Binder | binding result
4 | B4 | no binding
5 | B5 | no binding
6 | B6 | no binding
7 | B7 | no binding
8 | B8 | no binding
9 | B9 | no binding
10 | B10 | no binding
11 | B11 | no binding
12 | B12 | no binding
13 | B13 | no binding
14 | B14 | no binding
15 | B15 | no binding
16 | B16 | no binding
17 | B17 | no binding
18 | B18 | no binding
19 | B19 | no binding
20 | B20 | no binding
21 | B21 | no binding
22 | B22 | no binding

Target: T2, Neuropilin-1 (NP-1)
Test: competition, COS-1
Remark: another data set of the same source

Row | Binder | binding result
23 | B1 | no binding
24 | B14 | no binding

Target: T1, VEGFR-2/NP-1 co-expressed
Test: competition, Balb/c
Target sequence in this assay (chain, as listed by the source, chain 2 of 2, one chain of several): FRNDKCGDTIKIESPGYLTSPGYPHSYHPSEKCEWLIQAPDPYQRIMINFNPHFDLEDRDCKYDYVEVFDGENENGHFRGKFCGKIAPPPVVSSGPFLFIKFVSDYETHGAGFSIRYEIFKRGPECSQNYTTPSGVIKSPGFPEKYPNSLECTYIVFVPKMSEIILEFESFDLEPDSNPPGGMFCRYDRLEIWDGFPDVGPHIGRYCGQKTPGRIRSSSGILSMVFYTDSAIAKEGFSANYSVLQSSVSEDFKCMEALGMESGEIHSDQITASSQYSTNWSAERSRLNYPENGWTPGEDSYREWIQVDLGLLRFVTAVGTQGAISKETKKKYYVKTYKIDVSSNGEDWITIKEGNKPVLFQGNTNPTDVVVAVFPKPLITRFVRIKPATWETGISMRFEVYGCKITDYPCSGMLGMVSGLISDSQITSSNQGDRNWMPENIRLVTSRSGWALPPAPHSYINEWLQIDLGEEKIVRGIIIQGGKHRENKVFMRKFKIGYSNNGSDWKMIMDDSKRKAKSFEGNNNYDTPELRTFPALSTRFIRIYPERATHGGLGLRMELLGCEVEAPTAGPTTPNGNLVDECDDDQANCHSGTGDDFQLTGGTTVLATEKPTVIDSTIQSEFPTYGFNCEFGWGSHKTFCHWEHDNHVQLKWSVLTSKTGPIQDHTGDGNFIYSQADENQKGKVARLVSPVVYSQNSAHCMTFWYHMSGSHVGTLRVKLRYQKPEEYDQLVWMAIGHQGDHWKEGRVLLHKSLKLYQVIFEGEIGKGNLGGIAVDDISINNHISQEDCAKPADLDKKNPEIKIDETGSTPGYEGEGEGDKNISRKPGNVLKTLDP

Row | Binder | IC50 [nM]
25 | B7 | 300

Target: T2, Neuropilin-1 (NP-1)
Test: competition, Balb/c

Row | Binder | IC50 [nM]
26 | B3 | 0.158
27 | B7 | 17.8
28 | B23 | 254

Target: T1, VEGFR-2/NP-1 co-expressed
Test: competition, 125I-VEGF165

Row | Binder | IC50 [nM]
29 | B24 | 12200
30 | B25 | 1170

Target: T3, VEGFR-2
Test: competition, COS-1 cells, 4C

Row | Binder | IC50 [nM]
31 | B1 | 0.312

Target: T2, Neuropilin-1 (NP-1)
Test: other, radioligand saturation COS-1

Row | Binder | Kd [nM]
32 | B3 | 2.09
